Source: the supplement of paper PMC9233669
Variants at the floor of the assay were thinned out.

Columns and labels:
biotinyl-Ile-oxazolone = assay: self-aminoacylation, catalytic enhancement (BIO) (fold over background); higher = more active; k-Seq, kA / k0A0; sequences stand for … in GGGAAUGGAUCCACAUCUACGAAUUC…UUCACUGCAGACUUGACGAAGCUG
In short: (§1)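 Mutagenized RNA pools with a 21-nt variable region (0.43 μM) reacted with each biotinyl-aminoacyl-oxazolone at 2–1250 μM. Reactions ran in 50 μL HEPES/NaCl/KCl/MgCl2/CaCl2 buffer with 5% acetonitrile, pH 6.9–7.0, for 90 minutes at room temperature. Streptavidin-captured RNA was quantified by triplicate qPCR and Illumina sequencing, and per-sequence fraction reacted was fit to a pseudo-first-order model with 1000 bootstraps. Catalytic enhancement is median kA divided by the uncatalyzed rate, the low-activity peak of a bimodal Gaussian fit.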

biotinyl-Phe-oxazolone = assay: self-aminoacylation, catalytic enhancement (BFO) (fold over background); higher = more active; k-Seq, kA / k0A0; sequences stand for … in GGGAAUGGAUCCACAUCUACGAAUUC…UUCACUGCAGACUUGACGAAGCUG
In short: as §1

biotinyl-Leu-oxazolone = assay: self-aminoacylation, catalytic enhancement (BLO) (fold over background); higher = more active; k-Seq, kA / k0A0; sequences stand for … in GGGAAUGGAUCCACAUCUACGAAUUC…UUCACUGCAGACUUGACGAAGCUG
In short: as §1

biotinyl-Trp-oxazolone = assay: self-aminoacylation, catalytic enhancement (BWO) (fold over background); higher = more active; k-Seq, kA / k0A0; sequences stand for … in GGGAAUGGAUCCACAUCUACGAAUUC…UUCACUGCAGACUUGACGAAGCUG
In short: as §1

biotinyl-Met-oxazolone = assay: self-aminoacylation, catalytic enhancement (BMO) (fold over background); higher = more active; k-Seq, kA / k0A0; sequences stand for … in GGGAAUGGAUCCACAUCUACGAAUUC…UUCACUGCAGACUUGACGAAGCUG
In short: as §1

biotinyl-Val-oxazolone = assay: self-aminoacylation, catalytic enhancement (BVO) (fold over background); higher = more active; k-Seq, kA / k0A0; sequences stand for … in GGGAAUGGAUCCACAUCUACGAAUUC…UUCACUGCAGACUUGACGAAGCUG
In short: as §1

Sequence | self-aminoacylation (biotinyl-Ile-oxazolone) | self-aminoacylation (biotinyl-Phe-oxazolone) | self-aminoacylation (biotinyl-Leu-oxazolone) | self-aminoacylation (biotinyl-Trp-oxazolone) | self-aminoacylation (biotinyl-Met-oxazolone) | self-aminoacylation (biotinyl-Val-oxazolone)
CUACUUCAAACAAUCGGCCGG [Fam1A.1 aminoacylation ribozyme variant] | 2.09 | 2.44 | – | – | – | –
CUUACCCUGCUCAUCGAGUGA [Fam2.1 aminoacylation ribozyme variant] | – | 2.86 | 2.19 | 2.2 | 2.57 | –
UUUACCCUGGUCAUCGAGGGA [Fam2.1 aminoacylation ribozyme variant] | – | 3.55 | – | 2.85 | – | 2.19
AUUACCCUCGUCAUGGAGUGA [Fam2.1 aminoacylation ribozyme variant] | – | 8.82 | 3.02 | 2.5 | 2.81 | –
AUUAGCCUGGUCAUCGAGUGG [Fam2.1 aminoacylation ribozyme variant] | – | 2.98 | 2.35 | 3.05 | 2.81 | –
ACUACCCUCGUCAUCGAGUGA [Fam2.1 aminoacylation ribozyme variant] | – | 4.34 | 3.13 | 2.14 | 2.71 | 2.32
AAGUUCGCUAAUAGUCGCAAU [Fam3.1 aminoacylation ribozyme variant] | – | 3.19 | – | 2.44 | 2.1 | 2.03
AUUACCCUGUUCAUCGAGUGU [Fam2.1 aminoacylation ribozyme variant] | – | – | 2.1 | 3.95 | 2.84 | 2.02
AAUACCCUGGUCCUCGAGUGA [Fam2.1 aminoacylation ribozyme variant] | – | 9.54 | 3.33 | 3.22 | 3.08 | –
AUUCACCUAGGUCAUCGCGUC [Fam2.2 aminoacylation ribozyme variant] | – | 9.82 | – | 2.85 | 2.3 | 2.15
AUAACCCUGGUCAUCGUGUGA [Fam2.1 aminoacylation ribozyme variant] | – | 15.2 | 3.53 | 3.32 | 3.15 | –
AUUACCCUGGUCGUCCAGUGA [Fam2.1 aminoacylation ribozyme variant] | – | 11.1 | 2.88 | 3.21 | 2.68 | –
AGGUUUGCCAAUAGUCGCAAG [Fam3.1 aminoacylation ribozyme variant] | 2.1 | 9.52 | 2.31 | 3.7 | 2.31 | –
AAUACCCUGUUCAUCGAGUGA [Fam2.1 aminoacylation ribozyme variant] | – | 9.83 | 3.46 | 4.5 | 3 | 2.14
CCCCACUUCAAGCAGUCGGUC [Fam1B.1 aminoacylation ribozyme variant] | – | 3.77 | 2.2 | 3.29 | – | 2.23
AAGUUUGCUAAUAGUCGCGUG [Fam3.1 aminoacylation ribozyme variant] | – | 8.13 | 2.15 | 2.15 | 2.33 | –
CCACACUUCAAGCAAUGGGCC [Fam1B.1 aminoacylation ribozyme variant] | – | – | – | – | – | 2.81
AUUACCCAGGUCAUCGUGUGA [Fam2.1 aminoacylation ribozyme variant] | – | 21.4 | 3.86 | 4.27 | 3.58 | –
CCGCUUCAAACAAUCGGUCUG [Fam1A.1 aminoacylation ribozyme variant] | – | 257 | 4.82 | 95.9 | 2.68 | 2.4
AUACACCUAGGUCAUCGAGUG [Fam2.2 aminoacylation ribozyme variant] | – | 2.81 | 2.87 | 2.4 | 2.4 | –
AUUCACCAAGGUCAUCGGGGG [Fam2.2 aminoacylation ribozyme variant] | 2.02 | 11.9 | 2.72 | 2.91 | 2.23 | –
AUUCACCUAGGUAACCGGGUG [Fam2.2 aminoacylation ribozyme variant] | – | 11 | 2.85 | 2.56 | 2.57 | –
AAGCUUGUUAAUAGUCGCAAG [Fam3.1 aminoacylation ribozyme variant] | 2.21 | 3.63 | 2.38 | 2.3 | 2.26 | –
AAUACCCUGGUCAUCGAGUGG [Fam2.1 aminoacylation ribozyme variant] | – | 7.18 | 2.81 | 3.39 | 2.49 | –
AAUUUAGCUAAUAGUCGCAAG [Fam3.1 aminoacylation ribozyme variant] | 2.02 | 2.58 | – | – | – | –
AAGUUCGCUAAUAGUCGCAAA [Fam3.1 aminoacylation ribozyme variant] | 2.49 | 4.42 | 2.63 | 2.76 | 2.01 | –
AUUCACCUAGGACAUCGGGGG [Fam2.2 aminoacylation ribozyme variant] | – | 10.4 | 2.63 | – | 3.13 | 2.18

Sequence | self-aminoacylation (biotinyl-Ile-oxazolone) | self-aminoacylation (biotinyl-Phe-oxazolone) | self-aminoacylation (biotinyl-Leu-oxazolone) | self-aminoacylation (biotinyl-Trp-oxazolone) | self-aminoacylation (biotinyl-Met-oxazolone) | self-aminoacylation (biotinyl-Val-oxazolone)
AAGCUUGGUAAUAGUCGCAAG [Fam3.1 aminoacylation ribozyme variant] | – | 2.69 | 2.52 | 2.68 | 2.46 | –
CUUACCCUGGUCAUCGAGGGA [Fam2.1 aminoacylation ribozyme variant] | – | – | – | – | – | 2.04
AGUCACCUAGGUCAUCAGGUG [Fam2.2 aminoacylation ribozyme variant] | – | 8.84 | 2.1 | – | – | 2.09
AUUACACUGGUCAUCAAGUGA [Fam2.1 aminoacylation ribozyme variant] | – | 3.52 | 2.31 | 3.18 | 2.7 | –
CCACACUUGAAGCAAUCGGCC [Fam1B.1 aminoacylation ribozyme variant] | – | – | 2.24 | 2.29 | – | 3.19
AUUCACCUAGCUGAUCGGGUG [Fam2.2 aminoacylation ribozyme variant] | 2.29 | 8.31 | 2.82 | – | – | 2.63
AUUCACCUCGGUCAUCGAGUG [Fam2.2 aminoacylation ribozyme variant] | – | 13.1 | 2.88 | 2.51 | 2.33 | –
AUUCACCCAGGUCAUCGGGUU [Fam2.2 aminoacylation ribozyme variant] | – | 6.46 | 2.65 | – | 2.16 | 2.14
CCACACGUCAAGCAAUCCGUC [Fam1B.1 aminoacylation ribozyme variant] | – | – | – | 2.45 | – | 2.22
CCGCACCUCAAGCAAUCGGUC [Fam1B.1 aminoacylation ribozyme variant] | – | 6.19 | – | 5.62 | – | 2.16
CCACACUCCAAGCAUUCGGUC [Fam1B.1 aminoacylation ribozyme variant] | – | – | – | – | – | 2.83
CCCCACUCCAAGCAAUCGGUC [Fam1B.1 aminoacylation ribozyme variant] | – | 8.62 | – | 6.53 | – | 2.19
AUUCACCGAGGUCAUCGGUUG [Fam2.2 aminoacylation ribozyme variant] | – | 29 | 4.89 | 2.6 | 3.52 | –
GAGUUUGCUAAUAGUCGCAAU [Fam3.1 aminoacylation ribozyme variant] | 2.21 | 2.19 | – | 3.41 | – | –
AUUACCCUGGUCAUCGAGGGG [Fam2.1 aminoacylation ribozyme variant] | – | 2.86 | 2.42 | 2.23 | 2.75 | –
CCACACUGCAAGCAAUCGGGC [Fam1B.1 aminoacylation ribozyme variant] | – | – | – | 3 | – | 2.56
CCCCAUUUCAAGCAAUCGGUC [Fam1B.1 aminoacylation ribozyme variant] | 2.26 | 9.72 | – | 7.54 | – | 2.07
CCACAACUCAAGCAAUCGGUC [Fam1B.1 aminoacylation ribozyme variant] | – | 2.62 | – | – | – | 2.23
AUUCACCUAAUUCAUCGGGUG [Fam2.2 aminoacylation ribozyme variant] | – | 15.5 | 3.05 | 3.32 | 2.68 | –
CUUACCCUGGUCAUCGAGUGC [Fam2.1 aminoacylation ribozyme variant] | – | 4.77 | 3.18 | 3.03 | 2.91 | –
AUUACCCUGGUCUGCGAGUGA [Fam2.1 aminoacylation ribozyme variant] | – | 9.18 | 2.72 | 2.62 | 2.15 | –
AUUACUCUGGUCAUCAAGUGA [Fam2.1 aminoacylation ribozyme variant] | – | 4.38 | 2.29 | 3.07 | 2.47 | –
CCAGACUUCAAGCAAUCGGGC [Fam1B.1 aminoacylation ribozyme variant] | 2.71 | – | 2.69 | 3.72 | – | 3.13
AACUUUGCUCAUAGUCGCAAG [Fam3.1 aminoacylation ribozyme variant] | 2.01 | 10.8 | 2.47 | 2.34 | 2 | –
CCACACUUCAAGCCAUCGGUU [Fam1B.1 aminoacylation ribozyme variant] | – | 2.81 | – | 2.06 | – | 2.18
AAUUUUACUAAUAGUCGCAAG [Fam3.1 aminoacylation ribozyme variant] | 2.01 | 2.67 | – | – | – | –
AUUCACCUGGGUCAUCGGCUG [Fam2.2 aminoacylation ribozyme variant] | 2.01 | 8.1 | 2.27 | – | – | 2.54
